{"source": "patent US20120195897A1", "about": "(US Dept. of Health and Human Services, published 2012)", "binders": {"B1": {"name": "m636 (VHH)", "VHH": "QVQLVQSGGGLVQPGGSLRLSCAASYYSLQHDNFPYTFMSWVRQAPGQRLEWVSGISGSGGSTYYADSVKGRFTISRDNSKNTLYLQMNTLRAEDTAMYYCARIRWLQDLDYWGQGTLVTVSS", "notes": "Human VH single domain antibody (dAb) selected from phage library m91; also called dAb m636; IGF-2 dAb"}}, "molecular_target": "T1, IGF ligand 2 (IGF-2) (human, UniProt P01344 25-91)", "T1 construct": "Used as antigen in ELISA and as stimulus (10 nM) on MCF-7 cells; also called insulin-like growth factor 2", "T1 sequence (P01344 25-91 limits assumed)": "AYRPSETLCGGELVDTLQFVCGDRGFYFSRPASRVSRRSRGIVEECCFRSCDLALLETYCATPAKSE", "test": "ELISA"}
{"binder": "B1", "values": [{"measurement": "binding result", "result": "binds"}]}
